Measurements published in paper PMC11218372.

Assays:
[1] = target: CA7-PabCA, carbonic anhydrase from Pyrococcus abyssi (Py. abyssi); experiment: SDS-PAGE; SEC fractions of the purified CA (Cobalt His-Pur, Superdex 75), NuPAGE 4-12% Bis-Tris gel
[2] = target: CA7-PabCA, carbonic anhydrase from Pyrococcus abyssi (Py. abyssi); experiment: SDS-PAGE; cell lysates of E. coli overexpressing the CA, NuPAGE 4-12% Bis-Tris gel in MES buffer; CA7 expressed without additional Zn, CA8 with 0.5 mM ZnSO4
[3] = target: CA8-PhoCA, carbonic anhydrase from Pyrococcus horikoshii (Py. horikoshii); experiment: SDS-PAGE; SEC fractions of the purified CA (Cobalt His-Pur, Superdex 75), NuPAGE 4-12% Bis-Tris gel
[4] = target: CA8-PhoCA, carbonic anhydrase from Pyrococcus horikoshii (Py. horikoshii); experiment: SDS-PAGE; cell lysates of E. coli overexpressing the CA, NuPAGE 4-12% Bis-Tris gel in MES buffer; CA7 expressed without additional Zn, CA8 with 0.5 mM ZnSO4

Row | stoichiometry N [1] | stoichiometry N [2] | stoichiometry N [3] | stoichiometry N [4] | Substance
1 | 3 | 3 | – | – | CA7-PabCA, carbonic anhydrase from Pyrococcus abyssi (enzyme)
2 | – | – | 3 | 3 | CA8-PhoCA, carbonic anhydrase from Pyrococcus horikoshii (enzyme)
